Measured values published in patent US20050100965A1 (published 2005).
Where “and” joins values, the source holds several entries; their conditions need not be identical. Equal entries are not always repeated.

B1: HuMAb 2.5.1 (antibody, V domains shown)
VH: ZVQLVQSGTEVKKPGESLKISCKGSGYTVTSYWIGWVRQMPGKGLEWMGFIYPGDSETRYSPTFQGQVTISADKSFNTAFLQWSSLKASDTAMYYCARVGSGWYPYTFDIWGQGTMVTVSS
VL: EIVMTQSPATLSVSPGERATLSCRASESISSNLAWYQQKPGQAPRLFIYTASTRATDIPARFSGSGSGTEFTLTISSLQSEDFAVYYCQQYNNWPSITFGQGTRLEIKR
B2: HuMAb 2.13.1 (antibody, V domains shown)
VH: ZVQLQESGPGLVTPSQTLSLTCTVSGGSISSGGHYWTWIRQHPGKGLEWIGYIYYSGSTYYNPSLKSRLTISVDTSKNQFSLKLSSVAAADTAVYYCARDRGGSGSYWDYWGQGTLVTVSS
VL: EIVLTQSPGTLSLSPGERATLSCRGSRSVSSGYLAWYQQKPGQAPRLLIYGVSIRATGIPDRFSGSGSGTDFTLTISRLEPEDFAVYYCQQYHGSPLTFGGGTKVEIKR
B3: HuMAb 215 (antibody, V domains shown)
VH: ZVQLQESGPGLVKPSQTLSLTCTVSGGSINSGDYYWSWIRQHPGKGLEWIGHISYRGTTYYNPSLKSRVTISVDTSKNQFSLKLSSVTAADTAVYCCARDRGGGFFDLWGRGTLVTVSS
VL: EIVLTQSPGTLSLSPGERATLSCRASRSLSSGYLAWYQQKPGQAPRLLIYGASIRATGIPDRFSGSGSATDFTLTISRLEPEDFAVYYCQQYNYSPLTFGGGTRVEINR
B4: HuMAb 550 (antibody, V domains shown)
VH: ZVQLQESGPGLVKPSQTLSLTCTVSGGSINSGGYYWSWIRQHPGKGLEWIGHISYRGTTYSNPSLKSRVTISVDTSKNQFSLKLSSVTAADTAVYYCARDRGGGFFDLWGRGTLVTVSS
VL: EIVLTQSPGTLSLSPGERATLSCRASQSVNSGYLAWYQQKPGQAPRLLIYGVSIRATDIPDRFSGSGSATDFTLTISRLEPEDFAVYYCQQYGFSPLTFGGGTRVEINR
notes: KG-1 IC50 printed as TBD
B5: HuMAb 435 (antibody, V domains shown)
VH: ZLQLQESGPGLVKPSETLSLTCTVSGGSIDSRIYYWGWIRQPPGKGLEWIGSIYYRGSTYYNPSLKSRVTISVDTPKNQFSLKLNSVTAADTAVYYCAREDSSAWVFDYWGQGTLATVSS
VL: EIVLTQSPGTLSLSPGERATLSCRASQSVRNNYLNWYQQKPGQAPRLLIYGAFSRATGIPDRFSGSGSGTDFTLTISSLEPEDFVVYYCQQYGNSIDSFGQGTKLEINR
B6: HuMAb 413 (antibody, V domains shown)
VH: ZTQLQESGPGLVKPSETLSLTCTVSGGSISSRVYYWGWIRQPPGKGLEWIGSIYYSGSTYYSPSLKSRVTISVDTSKNQFSLKLSSVTAADTAIYYCAREDSSAWVFEHWGQGTLVTVSS
VL: EIVLTQSPDTLSLSPGERATLSCRASQILSRNYLAWYQQKPGQAPRLLIYGISIRATGIPDRFSGSGSGADFTLTINRLEPEDFAVYYCQHYDNSLCSFGQGTKLEVKR
B7: HuMAb 351 (antibody, V domains shown)
VH: ZVQLVESGGGVVQPGRSLRLSCAASGFTFSHYGMHWVRQAPGKGLEWVAVISYDGRNKYYVDSVKGRFTISRDNSKNTLYLQMNSLRAEDTAVFYCAREKGGSGWPPFYYYYGMDVWGQGTTVTVSS
VL: DIVMTQTPLSLSVTPGQPASISCKSSQNLLYSDGETYLCWYLQKPGQPPQLLIYEVSNRFSGVPERFSGSGSGTDFTLKISRVEAEDVGIYYCMQNVQLPLTFGGGTRVEIKR
B8: HuMAb 268 (antibody, V domains shown)
VH: ZVQLVESGGGVVQPGRSLRLSCAASGFTFRNYGLHWVRQAPGKGLEWVAVIWYDGSNKYYADSVKGRFTISRDNSKNTLYLQMNSLRAEDTAVYYCARESYYYYGMDVWGQGTTVTVSS
VL: EIVMTQSPATLSVSPGERATLSCRASQSFNSNLVWYQQKPGQAPRLLIYGASTRATGIPARFSGSGSGTEFTLTISSLQSEDFAVYYCQQYNNWTWTFGQGTKVEIKR

How the values were obtained:
NEM-huIL-18 = NEM-huIL-18 (human, UniProt Q14116 37-193, cysteines treated with N-ethyl maleiamide (NEM)); experiment: cell-based or functional assay
[1] = target: T1, Biotinylated rhuIL-18 (biot-IL-18) (human, UniProt Q14116 37-193, NEM-treated cysteines; biotin on lysine residues (mixture with 1, 2, 3 or 4 biotins per huIL-18)); experiment: biotinylated IL-18 ELISA, hybridoma or B cell supernatant
T1 construct: also called biotinylated NEM-huIL-18; biotinylated IL-18
Description: An ELISA was developed to screen for antibodies that bind human IL-18. […] Hybridoma or B cell supernatants were applied and IL-18-bound antibodies were detected using HRP-conjugated anti-human IgGs, following standard ELISA protocols well known in the art.

Binder	KG-1 Assays (IC50, M) (NEM-huIL-18)	binding result [1]
B1	3e-10 M and 4e-10 M	–
B2	2e-10 M and 1e-10 M and 7e-11 M	–
B3	1e-10 M and 3e-10 M	–
B4	–	binds
B5	8e-10 M and 7e-10 M and 4e-10 M	–
B6	1e-09 M and 7e-10 M	–
B7	2e-10 M	–
B8	7e-09 M	–
